# Assay results reported in PMC9083542, “Small Molecule Inhibitor Targeting CDT1/Geminin Protein Complex Promotes DNA Damage and Cell Death in Cancer Cells” (Frontiers in Pharmacology, 2022).
# T1: CDT1 (Homo sapiens, UniProt Q9H211)
# T1 construct: tCDT1 (residues 158–356); also miniCDT1 (residues 158–396); with Geminin
# T1 sequence (Q9H211 158-356): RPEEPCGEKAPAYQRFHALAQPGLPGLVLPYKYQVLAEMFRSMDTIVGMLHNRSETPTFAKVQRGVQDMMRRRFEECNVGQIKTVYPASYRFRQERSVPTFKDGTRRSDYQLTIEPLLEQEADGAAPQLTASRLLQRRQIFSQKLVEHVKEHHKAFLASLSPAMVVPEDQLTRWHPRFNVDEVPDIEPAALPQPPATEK
# T1 sequence (O75496 1-209 partner): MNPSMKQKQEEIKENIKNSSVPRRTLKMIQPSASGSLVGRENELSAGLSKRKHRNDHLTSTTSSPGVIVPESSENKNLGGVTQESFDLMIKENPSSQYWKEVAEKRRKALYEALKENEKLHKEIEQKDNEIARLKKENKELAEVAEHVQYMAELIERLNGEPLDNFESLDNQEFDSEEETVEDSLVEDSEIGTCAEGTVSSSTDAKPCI
# T2: His-tagged human CDT1^158-396 Y170A (miniCDT1Y170A) (human, UniProt Q9H211 158-396, Y170A)
# T2 construct: CDT1, human, residues 158-396 with Y170A, cloned into pET28a; also called His6-tagged miniCDT1^Y170A; source: E. coli Rosetta 2 (DE3), expressed alone or co-expressed with ΔDBGeminin, purified (Ni-NTA IMAC, SEC); not shown: His6, N-terminal, kept
# T2 sequence (looked up): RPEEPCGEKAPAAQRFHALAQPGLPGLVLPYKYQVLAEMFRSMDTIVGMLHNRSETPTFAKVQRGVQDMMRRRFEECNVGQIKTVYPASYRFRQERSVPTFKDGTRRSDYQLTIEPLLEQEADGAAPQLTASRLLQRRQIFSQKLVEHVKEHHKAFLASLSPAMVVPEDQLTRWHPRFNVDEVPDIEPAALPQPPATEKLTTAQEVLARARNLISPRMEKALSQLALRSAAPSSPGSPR
# T3: His-tagged human CDT1^158-396 F173A (miniCDT1F173A) (human, UniProt Q9H211 158-396, F173A)
# T3 construct: CDT1, human, residues 158-396 with F173A, cloned into pET28a; source: E. coli Rosetta 2 (DE3), expressed alone or co-expressed with ΔDBGeminin, purified (Ni-NTA IMAC, SEC); not shown: His6, N-terminal, kept
# T3 sequence (looked up): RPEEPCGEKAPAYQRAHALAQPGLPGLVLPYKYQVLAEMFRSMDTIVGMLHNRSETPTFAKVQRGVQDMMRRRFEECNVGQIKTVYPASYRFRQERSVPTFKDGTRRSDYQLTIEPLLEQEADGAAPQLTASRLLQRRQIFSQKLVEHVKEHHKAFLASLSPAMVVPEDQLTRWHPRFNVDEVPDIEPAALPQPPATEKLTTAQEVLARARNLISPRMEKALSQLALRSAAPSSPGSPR
# T4: His-tagged human CDT1^158-396 L176A (miniCDT1L176A) (human, UniProt Q9H211 158-396, L176A)
# T4 construct: CDT1, human, residues 158-396 with L176A, cloned into pET28a; Could not be isolated on its own (limited solubility); used only as complex with ΔDBGeminin; source: E. coli Rosetta 2 (DE3), co-expressed with ΔDBGeminin, co-purified (Ni-NTA IMAC, SEC)
# T4 sequence (looked up): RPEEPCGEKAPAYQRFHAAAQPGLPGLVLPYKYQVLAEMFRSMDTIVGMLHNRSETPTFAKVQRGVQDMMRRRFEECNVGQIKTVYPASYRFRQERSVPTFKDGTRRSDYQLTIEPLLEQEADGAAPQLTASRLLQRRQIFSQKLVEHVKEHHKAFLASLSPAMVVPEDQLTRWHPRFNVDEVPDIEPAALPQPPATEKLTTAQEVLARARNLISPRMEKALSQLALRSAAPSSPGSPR
# T5: His-tagged human CDT1^158-396 (miniCDT1), wild type (human, UniProt Q9H211 158-396)
# T5 construct: CDT1, human, residues 158-396 (miniCDT1); plasmid described in De Marco et al., 2009; also called His6-tagged miniCDT1; source: E. coli Rosetta 2 (DE3), expressed alone or co-expressed with Geminin variants, purified (Ni-NTA IMAC, SEC); not shown: His6, N-terminal, kept
# T5 sequence (looked up): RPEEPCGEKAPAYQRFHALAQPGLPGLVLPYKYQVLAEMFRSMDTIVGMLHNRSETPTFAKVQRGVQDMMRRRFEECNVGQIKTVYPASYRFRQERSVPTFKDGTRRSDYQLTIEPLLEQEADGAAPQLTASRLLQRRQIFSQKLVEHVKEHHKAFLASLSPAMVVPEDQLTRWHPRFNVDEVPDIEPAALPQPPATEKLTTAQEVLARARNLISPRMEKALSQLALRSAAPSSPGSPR
# T6: CDT1-GFP (UniProt Q9H211 1-546)
# T6 construct: CDT1 fused to GFP; plasmid and cell line from Xouri et al., 2007; also called MCF7 CDT1-GFP; source: MCF7 cells stably expressing CDT1-GFP, in fixed cells
# T6 sequence (looked up): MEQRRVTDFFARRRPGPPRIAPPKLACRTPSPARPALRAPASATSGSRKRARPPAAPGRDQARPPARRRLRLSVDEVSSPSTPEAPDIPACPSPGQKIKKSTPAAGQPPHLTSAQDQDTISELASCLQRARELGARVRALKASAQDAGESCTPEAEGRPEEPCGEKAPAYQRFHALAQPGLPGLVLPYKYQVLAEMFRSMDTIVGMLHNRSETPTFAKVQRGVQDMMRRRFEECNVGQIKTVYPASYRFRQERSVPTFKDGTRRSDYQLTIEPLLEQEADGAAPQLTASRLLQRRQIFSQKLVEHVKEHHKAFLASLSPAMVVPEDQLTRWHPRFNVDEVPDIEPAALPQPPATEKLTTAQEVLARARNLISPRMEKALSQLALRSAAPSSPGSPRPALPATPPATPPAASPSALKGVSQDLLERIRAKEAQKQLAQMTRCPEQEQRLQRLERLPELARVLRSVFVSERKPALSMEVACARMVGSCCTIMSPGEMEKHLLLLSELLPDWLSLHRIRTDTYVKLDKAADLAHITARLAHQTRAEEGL
# B1: His-tagged human CDT1^158-356 (tCDT1) (domain or fragment, UniProt Q9H211 158-356, looked up)
# chain: RPEEPCGEKAPAYQRFHALAQPGLPGLVLPYKYQVLAEMFRSMDTIVGMLHNRSETPTFAKVQRGVQDMMRRRFEECNVGQIKTVYPASYRFRQERSVPTFKDGTRRSDYQLTIEPLLEQEADGAAPQLTASRLLQRRQIFSQKLVEHVKEHHKAFLASLSPAMVVPEDQLTRWHPRFNVDEVPDIEPAALPQPPATEK
# notes: CDT1, human, residues 158-356 (tCDT1); plasmid described in De Marco et al., 2009; source: E. coli Rosetta 2 (DE3), purified (Ni-NTA IMAC, SEC)
# B2: Flag-tagged Geminin^28-209 (ΔDBGeminin) (domain or fragment, human, UniProt O75496 28-209, looked up)
# chain: MIQPSASGSLVGRENELSAGLSKRKHRNDHLTSTTSSPGVIVPESSENKNLGGVTQESFDLMIKENPSSQYWKEVAEKRRKALYEALKENEKLHKEIEQKDNEIARLKKENKELAEVAEHVQYMAELIERLNGEPLDNFESLDNQEFDSEEETVEDSLVEDSEIGTCAEGTVSSSTDAKPCI
# notes: Geminin, human, residues 28-209 (lacks the N-terminal stretch with the destruction box), cloned into pET22b; also called Flag-tagged ΔDBGeminin; source: E. coli Rosetta 2 (DE3), co-expressed with miniCDT1 variants, co-purified (Ni-NTA IMAC, SEC)
# B3: untagged ΔDBGeminin (domain or fragment, human, UniProt O75496 28-209, looked up)
# chain: MIQPSASGSLVGRENELSAGLSKRKHRNDHLTSTTSSPGVIVPESSENKNLGGVTQESFDLMIKENPSSQYWKEVAEKRRKALYEALKENEKLHKEIEQKDNEIARLKKENKELAEVAEHVQYMAELIERLNGEPLDNFESLDNQEFDSEEETVEDSLVEDSEIGTCAEGTVSSSTDAKPCI
# notes: Geminin, human, residues 28-209 (ΔDBGeminin), without the Flag tag; also called untagged ΔDBGeminin (Geminin 28-209)
# B4: Full-length human Geminin (natural protein, UniProt O75496 1-209, looked up)
# chain: MNPSMKQKQEEIKENIKNSSVPRRTLKMIQPSASGSLVGRENELSAGLSKRKHRNDHLTSTTSSPGVIVPESSENKNLGGVTQESFDLMIKENPSSQYWKEVAEKRRKALYEALKENEKLHKEIEQKDNEIARLKKENKELAEVAEHVQYMAELIERLNGEPLDNFESLDNQEFDSEEETVEDSLVEDSEIGTCAEGTVSSSTDAKPCI
# notes: Geminin, human, full length, cloned into pET22b; pET22b can add a C-terminal His tag (surmise); also called full length Geminin; source: E. coli Rosetta 2 (DE3), purified (Ni-NTA IMAC, SEC)
# B5: Geminin-dHcRed (natural protein, UniProt O75496 1-209, looked up)
# chain: MNPSMKQKQEEIKENIKNSSVPRRTLKMIQPSASGSLVGRENELSAGLSKRKHRNDHLTSTTSSPGVIVPESSENKNLGGVTQESFDLMIKENPSSQYWKEVAEKRRKALYEALKENEKLHKEIEQKDNEIARLKKENKELAEVAEHVQYMAELIERLNGEPLDNFESLDNQEFDSEEETVEDSLVEDSEIGTCAEGTVSSSTDAKPCI
# notes: Geminin fused to dHcRed; plasmid from Xouri et al., 2007; source: MCF7 cells, transiently transfected, in fixed cells
# Legend:
# [1] = target: CDT1 (Homo sapiens) (UniProt Q9H211); conditions: cited from earlier work
# [2] = target: T1, CDT1; experiment: SPR inhibition of Geminin binding to immobilized CDT1; AlphaScreen IC50 […]; FRET in MCF7 cells
# [3] = target: B4; experiment: SPR; Biacore T100, 25°C; tCDT1 (about 6.000 RU) or miniCDT1 covalently immobilised on a CM5 chip (amine coupling, pH 5.5); Geminin 12-966 nM with AF615 at 10 μM, 100 μM, 1 mM (20% DMSO); 20 mM Hepes pH 7.5, 200 mM NaCl, Tween 20 0.01%, 30 μl/min; conditions: both partners purified
# [4] = target: T2, His-tagged human CDT1^158-396 Y170A …; experiment: AlphaScreen or HTRF; HTS format and its optimisation (titration, data not shown): Flag-ΔDBGeminin/His6-miniCDT1Y170A complex 200-400 nM (300 nM in the screen), 10 μg/ml streptavidin Donor and nickel-chelate Acceptor beads, 25 nM biotinylated anti-Flag antibody; 25 mM Hepes pH 7.4, 100 mM NaCl, 0.2% BSA; conditions: both partners purified
# [5] = target: T3, His-tagged human CDT1^158-396 F173A …; experiment: AlphaScreen or HTRF; competition: Flag-ΔDBGeminin/His6-miniCDT1 mutant complex at 50 nM, streptavidin Donor beads with biotinylated anti-Flag antibody, nickel-chelate Acceptor beads; increasing untagged ΔDBGeminin; 25 mM Hepes pH 7.4, 100 mM NaCl, 0.1% BSA; 1.5 h at RT; conditions: both partners purified
# [6] = target: T4, His-tagged human CDT1^158-396 L176A …; experiment: as above; conditions: both partners purified
# [7] = target: T5, His-tagged human CDT1^158-396 …; experiment: SPR; Biacore T100, 25°C; about 5.000 RU of miniCDT1 variants held on a Ni NTA chip via N-terminal His-tag; full-length Geminin injected at 1-100 nM; 20 mM Tris pH 7.5, 200 mM NaCl, 30 μl/min; conditions: both partners purified
# [8] = target: T2, His-tagged human CDT1^158-396 Y170A …; experiment: as above; conditions: both partners purified
# [9] = target: T3, His-tagged human CDT1^158-396 F173A …; experiment: as above; conditions: both partners purified
# [10] = target: T6, CDT1-GFP; experiment: FRET or BRET; sensitized emission FRET in fixed MCF7 cells stably expressing CDT1-GFP (or GFP-NLS as control), transiently transfected with Geminin-dHcRed; with DMSO or AF615 at 11, 33, 100 μM for 24 h; conditions: partners not purified
molecule,measurement,setting,value
Geminin (from UniProt O75496),Kd,[1],4.4 nM
O=C(NNC(=S)N1CCOCC1)c1cnccn1 [AF615],Ki,[2],370 nM
B1,binding result,[3],binds
B2,AlphaScreen signal-to-background ratio,[4],> 20 fold
B3,excess of untagged ΔDBGeminin needed for a similar signal reduction,[5],10 fold
same,excess of untagged ΔDBGeminin needed for a similar signal reduction,[6],100 fold
B4,Kd,[7],9.4 nM
same,Kd,[8],41 nM
same,Kd,[9],25 nM
B5,FRET mean intensity against cells expressing GFP-NLS and Geminin-dHcRed,[10],~3 fold
